From patent US20190225669A1 (ACCELERON PHARMA, published 2019)
Like-named read-outs stand apart in the source and are kept apart here.

B1: BMP2 (ligand, UniProt P12643 283-396, looked up)
chain: QAKHKQRKRLKSSCKRHPLYVDFSDVGWNDWIVAPPGYHAFYCHGECPFPLADHLNSTNHAIVQTLVNSVNSKIPKACCVPTELSAISMLYLDENEKVVLKNYQDMVVEGCGCR
B3: GDF6 (ligand, UniProt Q6KF10 336-455, looked up)
chain: TAFASRHGKRHGKKSRLRCSKKPLHVNFKELGWDDWIIAPLEYEAYHCEGVCDFPLRSHLEPTNHAIIQTLMNSMDPGSTPPSCCVPTKLTPISILYIDAGNNVVYKQYEDMVVESCGCR
notes: also called BMP13

Tests used:
BMPRII-Fc homodimer = target: T1, BMPRII-Fc homodimer (UniProt Q13873 27-150); assay: Biacore SPR; kinetics indeterminate (transient)
T1 construct: extracellular domain
T1 sequence (looked up): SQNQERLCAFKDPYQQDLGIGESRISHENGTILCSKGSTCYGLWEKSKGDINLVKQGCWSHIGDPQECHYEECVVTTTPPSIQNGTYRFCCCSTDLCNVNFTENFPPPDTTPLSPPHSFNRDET

BMP9 = target: T2, BMP9 (UniProt Q9UK05 320-429); assay: Biacore SPR; kinetics indeterminate (transient)
T2 construct: also called GDF2
T2 sequence (looked up): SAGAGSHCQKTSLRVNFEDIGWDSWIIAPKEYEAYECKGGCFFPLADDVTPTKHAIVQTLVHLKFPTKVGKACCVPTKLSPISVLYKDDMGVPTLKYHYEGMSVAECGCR
Experimental: (§1) Ligands were injected and allowed to flow over the captured receptor protein.

BMP4 = target: T3, BMP4 (UniProt P12644 293-408); assay: Biacore SPR
T3 sequence (looked up): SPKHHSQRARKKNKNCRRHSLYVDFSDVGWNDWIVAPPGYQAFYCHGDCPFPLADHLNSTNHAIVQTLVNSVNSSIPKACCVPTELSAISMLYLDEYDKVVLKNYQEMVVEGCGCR
Experimental: as §1

GDF6 = target: B3; assay: Biacore SPR
Experimental: as §1

GDF8 = target: T4, GDF8 (UniProt O14793 267-375); assay: Biacore SPR
T4 construct: also called myostatin
T4 sequence (looked up): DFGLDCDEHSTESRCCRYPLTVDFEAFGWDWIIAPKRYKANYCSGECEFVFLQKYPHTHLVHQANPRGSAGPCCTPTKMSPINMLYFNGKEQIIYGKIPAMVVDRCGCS
Experimental: as §1

BMP2 = target: B1; assay: Biacore SPR
Experimental: as §1

BMP5 = target: T5, BMP5 (UniProt P22003 317-454, limits assumed); assay: Biacore SPR
T5 sequence (looked up): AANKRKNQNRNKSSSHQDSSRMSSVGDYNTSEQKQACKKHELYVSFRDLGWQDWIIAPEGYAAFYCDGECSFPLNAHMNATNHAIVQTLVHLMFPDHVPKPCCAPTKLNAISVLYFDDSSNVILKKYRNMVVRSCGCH
Experimental: as §1

activin B = target: T6, activin B (UniProt P09529 293-407); assay: Biacore SPR
T6 sequence (looked up): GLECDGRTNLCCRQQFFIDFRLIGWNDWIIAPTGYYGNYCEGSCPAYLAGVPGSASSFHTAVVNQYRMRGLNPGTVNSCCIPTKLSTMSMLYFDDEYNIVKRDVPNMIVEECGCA
Experimental: as §1

GDF5 = target: T7, GDF5 (UniProt P43026 382-501); assay: Biacore SPR
T7 construct: also called BMP14
T7 sequence (looked up): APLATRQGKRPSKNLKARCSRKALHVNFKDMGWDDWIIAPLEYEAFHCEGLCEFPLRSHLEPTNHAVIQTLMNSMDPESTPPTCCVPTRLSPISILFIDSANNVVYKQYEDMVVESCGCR
Experimental: as §1

BMP6 = target: T8, BMP6 (UniProt P22004 382-513, limits assumed); assay: Biacore SPR
T8 sequence (looked up): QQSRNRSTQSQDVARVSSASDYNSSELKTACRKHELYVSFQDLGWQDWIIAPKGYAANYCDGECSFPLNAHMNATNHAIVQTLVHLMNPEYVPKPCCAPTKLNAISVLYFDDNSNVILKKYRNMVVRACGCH
Experimental: as §1

activin A = target: T9, activin A (UniProt P08476 311-426); assay: Biacore SPR
T9 sequence (looked up): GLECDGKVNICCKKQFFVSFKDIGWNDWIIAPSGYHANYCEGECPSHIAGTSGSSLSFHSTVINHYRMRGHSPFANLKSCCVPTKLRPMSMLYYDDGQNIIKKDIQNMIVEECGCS
Experimental: as §1

BMP7 = target: T10, BMP7 (UniProt P18075 293-431); assay: Biacore SPR
T10 sequence (looked up): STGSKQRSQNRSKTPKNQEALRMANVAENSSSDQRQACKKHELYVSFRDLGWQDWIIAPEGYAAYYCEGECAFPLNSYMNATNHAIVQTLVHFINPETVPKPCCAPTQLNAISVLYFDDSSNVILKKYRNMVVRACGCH
Experimental: as §1

GDF3 = target: T11, GDF3 (UniProt Q9NR23 251-364); assay: Biacore SPR
T11 sequence (looked up): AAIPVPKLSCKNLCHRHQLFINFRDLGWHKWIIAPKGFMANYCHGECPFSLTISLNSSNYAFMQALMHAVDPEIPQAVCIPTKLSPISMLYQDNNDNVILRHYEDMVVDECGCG
Experimental: as §1

GDF7 = target: T12, GDF7 (UniProt Q7Z4P5 322-450, limits assumed); assay: Biacore SPR
T12 construct: also called BMP12
T12 sequence (looked up): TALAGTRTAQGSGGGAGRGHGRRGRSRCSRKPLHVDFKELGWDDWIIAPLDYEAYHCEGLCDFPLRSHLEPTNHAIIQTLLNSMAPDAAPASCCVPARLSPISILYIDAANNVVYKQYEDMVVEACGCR
Experimental: as §1

GDF11 = target: T13, GDF11 (UniProt O95390 299-407); assay: Biacore SPR
T13 construct: also called BMP11
T13 sequence (looked up): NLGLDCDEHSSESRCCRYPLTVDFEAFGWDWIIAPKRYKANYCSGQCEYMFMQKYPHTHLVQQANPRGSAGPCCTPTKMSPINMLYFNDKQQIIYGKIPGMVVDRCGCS
Experimental: as §1

BMP10 = target: T14, BMP10 (UniProt O95393 317-424); assay: Biacore SPR
T14 sequence (looked up): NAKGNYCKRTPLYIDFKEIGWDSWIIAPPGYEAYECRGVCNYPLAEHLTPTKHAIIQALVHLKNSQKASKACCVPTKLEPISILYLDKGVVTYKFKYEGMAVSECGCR
Experimental: as §1

ALK3-Fc homodimer [1] = target: T15, ALK3-Fc homodimer (UniProt P36894 24-152); assay: Biacore SPR
T15 construct: extracellular domain
Experimental: as §1

ALK3-Fc homodimer [2] = target: T15, ALK3-Fc homodimer; assay: Biacore SPR; remark: listed apart in the source
Experimental: as §1

B1
Kd (BMPRII-Fc homodimer): > 2000 nM

B2: ActRIIB-Fc:ALK3-Fc heterodimer (Fc fusion)
chain 1: GRGEAETRECIYYNANWELERTNQSGLERCEGEQDKRLHCYASWRNSSGTIELVKKGCWLDDFNCYDRQECVATEENPQVYFCCCEGNFCNERFTHLPEAGGPEVTYEPPPTAPTGGGTHTCPPCPAPELLGGPSVFLFPPKPKDTLMISRTPEVTCVVVDVSHEDPEVKFNWYVDGVEVHNAKTKPREEQYNSTYRVVSVLTVLHQDWLNGKEYKCKVSNKALPAPIEKTISKAKGQPREPQVYTLPPSRKEMTKNQVSLTCLVKGFYPSDIAVEWESNGQPENNYKTTPPVLKSDGSFFLYSKLTVDKSRWQQGNVFSCSVMHEALHNHYTQKSLSLSPGK
chain 2: GAQNLDSMLHGTGMKSDSDQKKSENGVTLAPEDTLPFLKCYCSGHCPDDAINNTCITNGHCFAIIEEDDQGETTLASGCMKYEGSDFQCKDSPKAQLRRTIECCRTNLCNQYLQPTLPPVVIGPFFDGSIRTGGGTHTCPPCPAPELLGGPSVFLFPPKPKDTLMISRTPEVTCVVVDVSHEDPEVKFNWYVDGVEVHNAKTKPREEQYNSTYRVVSVLTVLHQDWLNGKEYKCKVSNKALPAPIEKTISKAKGQPREPQVYTLPPSREEMTKNQVSLTCLVKGFYPSDIAVEWESNGQPENNYDTTPPVLDSDGSFFLYSDLTVDKSRWQQGNVFSCSVMHEALHNHYTQKSLSLSPG
notes: C-terminal Lys optional; also called ActRIIB-Fc:ALK3-Fc heterodimeric complex
Kd (BMP9): > 33 nM
Kd (BMP4): 0.003 nM
koff (BMP4): 6.5e-06 s⁻¹
kon (BMP4): 2.6e+06 M⁻¹ s⁻¹
Kd (GDF6): 1.6 nM
koff (GDF6): 0.00045 s⁻¹
kon (GDF6): 280000 M⁻¹ s⁻¹
Kd (GDF8): 0.31 nM
koff (GDF8): 0.00092 s⁻¹
kon (GDF8): 3e+06 M⁻¹ s⁻¹
Kd (BMP2): 0.001 nM
koff (BMP2): 1.1e-05 s⁻¹
kon (BMP2): 8e+06 M⁻¹ s⁻¹
Kd (BMP5): 0.64 nM
koff (BMP5): 0.00058 s⁻¹
kon (BMP5): 900000 M⁻¹ s⁻¹
Kd (activin B): 0.2 nM
koff (activin B): 0.00057 s⁻¹
kon (activin B): 2.8e+06 M⁻¹ s⁻¹
Kd (GDF5): 0.07 nM
koff (GDF5): 0.00083 s⁻¹
kon (GDF5): 1.2e+07 M⁻¹ s⁻¹
Kd (BMP6): 0.015 nM
koff (BMP6): 0.00029 s⁻¹
kon (BMP6): 2e+07 M⁻¹ s⁻¹
Kd (activin A): 0.15 nM
koff (activin A): 0.005 s⁻¹
kon (activin A): 3.4e+07 M⁻¹ s⁻¹
Kd (BMP7): 1.9 nM
koff (BMP7): 0.0015 s⁻¹
kon (BMP7): 820000 M⁻¹ s⁻¹
Kd (GDF3): 5.9 nM
koff (GDF3): 0.082 s⁻¹
kon (GDF3): 1.4e+07 M⁻¹ s⁻¹
Kd (GDF7): 0.052 nM
koff (GDF7): 0.0004 s⁻¹
kon (GDF7): 7.5e+06 M⁻¹ s⁻¹
Kd (GDF11): 0.066 nM
koff (GDF11): 0.0011 s⁻¹
kon (GDF11): 1.6e+07 M⁻¹ s⁻¹
Kd (BMP10): 0.031 nM
koff (BMP10): 0.00094 s⁻¹
kon (BMP10): 3e+07 M⁻¹ s⁻¹

B3
Kd (ALK3-Fc homodimer [1]): 40 nM
koff (ALK3-Fc homodimer [1]): 0.0013 s⁻¹
kon (ALK3-Fc homodimer [1]): 34000 M⁻¹ s⁻¹
Kd (BMPRII-Fc homodimer): > 88 nM
Kd (ALK3-Fc homodimer [2]): 40 nM
koff (ALK3-Fc homodimer [2]): 0.0013 s⁻¹
kon (ALK3-Fc homodimer [2]): 34000 M⁻¹ s⁻¹
